Measured values: publication PMC8919193

Legend:
[1] = target: unmodified and H2BK120ub nucleosomes; experiment: FRET or BRET
[2] = target: Alexa Fluor 488-labeled H2BK120ub nucleosome, H2A(L65C), H3K79Nle (UniProt P0CG47); experiment: other fluorescence titration
[3] = target: unmodified nucleosome, H3K79Nle, Alexa Fluor 488 on H2A(L65C) (human) (UniProt P62807); experiment: FRET or BRET

Substance “Atto647N-labeled DOT1Lcat(C45A, C75A, C179A, N324C) (from UniProt Q8TEK3 1-416) (domain or fragment)” has a Kd [1] of 32 to 36 nM.

For “DOT1Lcat (human DOT1L residues 1–416) (from UniProt Q8TEK3 1-416) (domain or fragment)”, the Kd [2] was 120 nM.

In the case of “DOT1Lcat(F326A, C45A, C75A, C179A, N324C), Atto647N-labeled (from UniProt Q8TEK3 1-416) (domain or fragment)”, the Kd [3] is reported as 38 nM.
